Reference: paper PMC3928614

Key:
[1] = target: GST-G547 IRE1α (His-GST-tagged IRE1α residues G547-L977) (UniProt O75460)
[2] = target: GST-G547 IRE1α (His-GST-tagged IRE1α residues G547-L977) (UniProt O75460); assay: native gel or EMSA; native polyacrylamide gel of purified GST-G547 IRE1α and G547 IRE1α; conditions not given
[3] = target: autophosphorylated G547 IRE1α (residues G547-L977, incubated with Mg/ATP) (human) (UniProt O75460)

| RNase activity (FRET derepression assay) of fully dephosphorylated GST-G547 IRE1α at 25 nM, the lowest concentration tested (% of full activity) [1] | stoichiometry N [2] | RNase activity (FRET-derepression assay) against concentration of autophosphorylated G547 IRE1α; activity from 50 nM, maximal at 350 nM [3] | Substance |
| --- | --- | --- | --- |
| 70 | 2 |  | GST-G547 IRE1α (His-GST-tagged IRE1α residues G547-L977) (from UniProt O75460 547-977) |
|  |  | 114 nM | autophosphorylated G547 IRE1α (residues G547-L977, incubated with Mg/ATP) (from UniProt O75460 547-977) (domain or fragment) |
